Reference: US20200405829

Experiments:
[1] = tested on: T1, wild-type RNase 1
T1 sequence: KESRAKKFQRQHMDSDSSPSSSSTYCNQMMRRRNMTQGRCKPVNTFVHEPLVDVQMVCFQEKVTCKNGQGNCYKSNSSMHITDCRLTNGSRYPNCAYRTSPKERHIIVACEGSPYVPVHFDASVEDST

[2] = tested on: T2, Str3 circular zymogen of RNase 1
T2 sequence: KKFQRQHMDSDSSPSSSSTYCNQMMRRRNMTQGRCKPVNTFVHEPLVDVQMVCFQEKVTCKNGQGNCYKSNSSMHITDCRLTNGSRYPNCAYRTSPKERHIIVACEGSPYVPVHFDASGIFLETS

[3] = tested on: T3, Str2 circular zymogen of RNase 1
T3 sequence: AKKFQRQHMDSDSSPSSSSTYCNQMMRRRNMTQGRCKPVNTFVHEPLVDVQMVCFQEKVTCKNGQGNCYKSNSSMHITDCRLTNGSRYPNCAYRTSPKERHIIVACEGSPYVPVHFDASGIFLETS

[4] = tested on: T4, Str4 circular zymogen of RNase 1
T4 sequence: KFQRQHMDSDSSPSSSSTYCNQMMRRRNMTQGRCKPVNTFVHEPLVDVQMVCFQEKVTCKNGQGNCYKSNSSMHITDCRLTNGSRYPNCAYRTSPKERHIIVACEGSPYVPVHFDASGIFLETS

HIV-1 protease
proteolytic cleavage after 3 hours of treatment at 37° C. [1]: no detectable cleavage of wild-type RNase 1 was observed | kcat/KM (HIV-1 protease) [2]: 1300 M⁻¹ s⁻¹ | kcat/KM (HIV-1 protease) [3]: 3900 M⁻¹ s⁻¹ | kcat/KM (HIV-1 protease) [4]: 2500 M⁻¹ s⁻¹
